Results on 20 substances are retold here after patent US10556944B2, “Fab region-binding peptide” (priority 2013, dated 2020).

Where no end group is shown, it is not given here. A value given as a limit tells only on which side of the number the result lay.

Experiment [1] has as its system anti-Her2antibody-Fab (IgG-Fab derived from anti-Her2 monoclonal antibody, Trastuzumab). Description: Biacore 3000 surface plasmon resonance, affinity of SpG-β1 mutants for immobilized IgG-Fab. The following applies: Table 1, Example 2, GST-fused one-domain peptide; for KA: KA=kon/koff, 1:1 binding model; for KA Vs. Wild: fold of wild-type KA; for kon: 25° C., pH 7.4. In kind it is binding, human.
Method: The Fab fragment was prepared by cleaving a humanized monoclonal IgG formulation as a starting material into a Fab fragment and an Fc fragment by papain, and separating and purifying only the Fab fragment.
Specifically, a humanized monoclonal IgG formulation (Herceptin, manufactured by Chugai Pharmaceutical Co., Ltd., in the case of anti-Her2 monoclonal antibody) was dissolved in a papain digestion buffer (0.1 M AcOH—AcONa, 2 mM EDTA, 1 mM cysteine, pH 5.5). Papain immobilized agarose: Papain Agarose from papaya latex (manufactured by Sigma) was added to the solution and the mixture was incubated at 37° C. for about 8 hours while being mixed with a rotator. The IgG-Fab was collected from flow-through fractions by affinity chromatography using a KanCapA column (manufactured by Kaneka Corporation). Thus, the IgG-Fab was separated and purified from the reaction solution (containing both the Fab fragment and the Fc fragment), which had been separated from the papain immobilized agarose. The separated IgG-Fab solution was purified by gel filtration chromatography using the Superdex 75 10/300 GL column (a standard buffer was used for equilibration and separation) to obtain an IgG-Fab solution.
(§1) The affinity of each of the SpG-β1 mutants produced in Example 1 (2) for the IgG-Fab was analyzed by using a biosensor: Biacore 3000 using surface plasmon resonance principle (manufactured by GE Healthcare Bioscience). In this example, the IgG-Fab produced in Example 2 (1) was immobilized on a sensor chip and each peptide was added on the chip. The interaction between the IgG-Fab and the peptide was detected. The IgG-Fab was immobilized on the sensor chip CM5 by amine coupling using N-hydroxysuccinimide (NHS) and N-ethyl-N′-(3-dimethylaminopropyl)carbodiimide hydrochloride (EDC), and ethanolamine was used for blocking (all the sensor chips and the immobilization reagents were manufactured by GE Healthcare Bioscience). The IgG-Fab solution was about 10-fold diluted in an immobilization buffer (10 mM CH3COOH—CH3COONa, pH 4.5) and the IgG-Fab was immobilized on the sensor chip in accordance with the protocol attached to the Biacore 3000. Further, a reference cell to be used as a negative control was also prepared by immobilizing ethanolamine for another flow cell on the chip after activation by EDC/NHS. Various SpG-31 mutants were appropriately prepared at concentrations of 0.1 to 100 μM by using a running buffer (20 mM NaH2PO4—Na2HPO4, 150 mM NaCl, 0.005% P-20, pH 7.4). Each peptide solution was added on the sensor chip at a flow rate of 40 μL/minute for 60 seconds. A sensorgram of the binding reaction at 25° C. was sequentially plotted during the addition (binding phase, 60 seconds) and after the addition (dissociation phase, 60 seconds). After each sensorgram determination, the sensor chip was regenerated by adding 20 mM NaOH (for 30 seconds).

The target of experiment [2] is T1, anti-TNFα antibody-Fab (IgG-Fab derived from anti-TNFα monoclonal antibody, adalimumab) (Homo sapiens, UniProt P01834+P01857).
T1 construct: cleaving a humanized monoclonal IgG formulation as a starting material into a Fab fragment and an Fc fragment by papain; purchased
The description is as above. In kind it is binding. The following applies: for affinity / binding ability for the IgG-Fab compared with the wild-type (in words): Tables 1 and 3, FIGS. 2 and 3.
Method: as §1
The affinity of the SpG-β1 mutant for the IgG-Fab was measured in the same manner as in the experiment of Example 2.
The affinity of the SpG-β1 mutant for the IgG-Fab was measured in the same manner as in the experiment of Example 3. In this experiment, the measurement was performed on the GST-cleaved type after the GST cleavage (Pep-). Further, not only one domain type (Pep.1d) but also one domain type with Cys at the C-terminus (Pep.1dC) and two domain type with Cys at the C-terminus (Pep.2dC) were used to perform the experiment.

[3] abbreviates: Table 1, Example 2, GST-fused one-domain peptide, 25° C., pH 7.4.
Setting [4] is: Table 1, Example 2, GST-fused one-domain peptide, KA=kon/koff, 1:1 binding model.
Setting [5] is: Table 1, Example 2, fold of wild-type KA, GST-fused one-domain peptide.
The mark [6] stands for this setting: Table 2, Example 3, GST-fused one-domain peptide.
The mark [7] stands for this setting: Table 2, Example 3, GST-fused one-domain peptide, 25° C., pH 7.4.
Where [8] appears, read: Table 2, Example 3, fold of wild-type KA, GST-fused one-domain peptide.
Setting [9] is: Table 3, Example 4, GST-cleaved type (Pep-), constructs Pep.1d, Pep.1dC, Pep.2dC.
The mark [10] stands for this setting: Table 3, Example 4, fold of wild-type KA of the same construct type.

With “K10R/K13T/K28Q/F30L/Q32R: GST-fused one-domain SpG-β1 mutant, amino acid SEQ ID NO: 17 (TTYKLILNGRTLTGETTTEAVDAATAEQVLKRYANDNGVDGEWTYDDATKTFTVTE; also: GST-fused, end not given here)”, in experiment [1], the KA turned out to be 1.72e+06 M⁻¹ and the “KA Vs. Wild” value was 3.2.
For “K13T/E19I/F30L: GST-fused one-domain SpG-β1 mutant, amino acid SEQ ID NO: 15 (TTYKLILNGKTLTGETTTIAVDAATAEKVLKQYANDNGVDGEWTYDDATKTFTVTE; also: GST-fused)”, the kon amounted to 92300 s/M in experiment [2] (setting [3]) and 141000 s/M in experiment [1]. Also, the KA came to 1.8e+06 M⁻¹ in experiment [2] (setting [4]) and 1.99e+06 M⁻¹ in experiment [1]. Also, the “KA Vs. Wild” value in experiment [2] (setting [5]) stood at 2.8; in experiment [1], 3.6.
Consider “K13T/E19I/V21D/K28I/F30L/K31R/D47H: GST-fused one-domain SpG-β1 mutant, amino acid SEQ ID NO: 75 (TTYKLILNGKTLTGETTTIADDAATAEIVLRQYANDNGVDGEWTYDHATKTFTVTE; also: GST-fused)”, for which, in experiment [2] (setting [6]), the KA came out at 1.39e+06 M⁻¹. In experiment [2] (setting [7]), the koff was determined as 0.0068 s⁻¹ and the kon was 95000 s/M. Further, the “KA Vs. Wild” value in experiment [2] (setting [8]) is reported as 3.7.
“K13T/E19I/V21D/T25M/F30L/Y33F/N35F/D47A: GST-fused one-domain SpG-β1 mutant, amino acid SEQ ID NO: 55 (TTYKLILNGKTLTGETTTIADDAAMAEKVLKQFAFDNGVDGEWTYDAATKTFTVTE; also: GST-fused)” displayed a KA in experiment [2] (setting [6]) of 3.47e+06 M⁻¹. In addition, in experiment [2] (setting [7]), the koff came out at 0.003 s⁻¹ and the kon worked out at 104000 s/M. For the same substance, the “KA Vs. Wild” value in experiment [2] (setting [8]) was determined as 9.3.
Consider “K13T/E19I/V21N/K28I/F30L: GST-fused one-domain SpG-β1 mutant, amino acid SEQ ID NO: 37 (TTYKLILNGKTLTGETTTIANDAATAEIVLKQYANDNGVDGEWTYDDATKTFTVTE; also: GST-fused)”, for which the KA in experiment [2] (setting [6]) stood at 3.01e+06 M⁻¹. In experiment [2] (setting [7]), this substance displayed a koff of 0.0071 s⁻¹ and a kon of 214000 s/M. In addition, the “KA Vs. Wild” value in experiment [2] (setting [8]) was found to be 8.1.
With “K13T/E19I/V39I: GST-fused one-domain SpG-β1 mutant, amino acid SEQ ID NO: 19 (TTYKLILNGKTLTGETTTIAVDAATAEKVFKQYANDNGIDGEWTYDDATKTFTVTE; also: GST-fused)”, the kon is 145000 s/M in experiment [2] (setting [3]) and 222000 s/M in experiment [1]. In addition, the KA in experiment [2] (setting [4]) was 2.74e+06 M⁻¹; in experiment [1] it was 2.83e+06 M⁻¹. Further, the “KA Vs. Wild” value came to 4.3 in experiment [2] (setting [5]) and 5.2 in experiment [1].
With “K13T/E19I/Y33F/N35Y/V39L: GST-fused one-domain SpG-β1 mutant, amino acid SEQ ID NO: 41 (TTYKLILNGKTLTGETTTIAVDAATAEKVFKQFAYDNGLDGEWTYDDATKTFTVTE; also: GST-fused)”, the KA in experiment [2] (setting [6]) amounted to 1.87e+06 M⁻¹. In experiment [2] (setting [7]), this substance gave a koff of 0.0049 s⁻¹ and a kon of 90500 s/M. Also, in experiment [2] (setting [8]), the “KA Vs. Wild” value was 5.0.
As to “K13T/F30L/D36G (TTYKLILNGKTLTGETTTEAVDAATAEKVLKQYANGNGVDGEWTYDDATKTFTVTE)”, in experiment [1], the KA amounted to 3.17e+06 M⁻¹ and the “KA Vs. Wild” value turned out to be 5.8.
Turning to “K13T/T18A/E19V/F30L/Y33F: GST-fused one-domain SpG-β1 mutant, amino acid SEQ ID NO: 67 (TTYKLILNGKTLTGETTAVAVDAATAEKVLKQFANDNGVDGEWTYDDATKTFTVTE; also: GST-fused)”, the KA in experiment [2] (setting [6]) stood at 2.85e+06 M⁻¹. In experiment [2] (setting [7]), this substance came in with a koff of 0.0033 s⁻¹ and a kon of 93600 s/M. Further, in experiment [2] (setting [8]), the “KA Vs. Wild” value is 7.6.
Turning to “K13T/V21A/F30L/Y33F/D40E: GST-fused one-domain SpG-β1 mutant, amino acid SEQ ID NO: 51 (TTYKLILNGKTLTGETTTEAADAATAEKVLKQFANDNGVEGEWTYDDATKTFTVTE; also: GST-fused)”, the KA in experiment [2] (setting [6]) stood at 1.78e+06 M⁻¹. In experiment [2] (setting [7]), this substance gave a koff of 0.0078 s⁻¹ and a kon of 139000 s/M. Further, the “KA Vs. Wild” value in experiment [2] (setting [8]) came to 4.8.
“K13T/V21I/A23T/F30L/E42L: GST-fused one-domain SpG-β1 mutant, amino acid SEQ ID NO: 25 (TTYKLILNGKTLTGETTTEAIDTATAEKVLKQYANDNGVDGLWTYDDATKTFTVTE; also: GST-fused)” registered a KA in experiment [2] (setting [6]) of 1.44e+06 M⁻¹. In addition, the kon in experiment [2] (setting [7]) was 85000 s/M. Besides, the “KA Vs. Wild” value in experiment [2] (setting [8]) was determined as 3.9.
With “Pep.1d K10R/K13T/T18A/E19I/V21D/T25M/F30L/Y33F/N35F/D47A: SpG-β1 mutant, SEQ ID NO: 87, GST-cleaved one domain type (TTYKLILNGRTLTGETTAIADDAAMAEKVLKQFAFDNGVDGEWTYDAATKTFTVTE; SpG mutant)”, in experiment [2] (Example 4, GST-cleaved one domain type), the “affinity constant (KA), order of magnitude” value was ~10^7 M^−1. Besides, in experiment [2] (setting [9]), the KA came to 1.19e+07 M⁻¹, the off-rate constant (koff) came out at 0.0117 s⁻¹ and the kon came to 138000 s/M. For the same substance, the “KA Vs. Wild” value in experiment [2] (setting [10]) was found to be 83. Further, the “KA Vs. Wild” value in experiment [2] (Table 3, Example 4, fold of wild-type KA of the same construct type, listed as Pep-SpGβ1-K10R/K13T/T18A/E19I/V21D/T25M/F30L/Y33F/N35F/D47A.1d) was no less than 80. Also, the “affinity / binding ability for the IgG-Fab compared with the wild-type (in words)” value in experiment [2] was “significantly higher affinity for the IgG-Fab than Pep-SpGβ1-Wild.1d”.
“Pep.1d K13T/E19I/V21D/T25M/F30L/Y33F/N35F/D47A (TTYKLILNGKTLTGETTTIADDAAMAEKVLKQFAFDNGVDGEWTYDAATKTFTVTE)”: in experiment [2] (setting [9]), the KA was 4.24e+06 M⁻¹, the koff is 0.0257 s⁻¹ and the kon is 109000 s/M. For the same substance, the “KA Vs. Wild” value in experiment [2] (setting [10]) came to 29. Moreover, the “KA Vs. Wild” value in experiment [2] (Table 3, Example 4, fold of wild-type KA of the same construct type, listed as Pep-SpGβ1-K13T/E19I/V21D/T25M/F30L/Y33F/N35F/D47A.1d) is roughly 30. Moreover, the “affinity / binding ability for the IgG-Fab compared with the wild-type (in words)” value in experiment [2] is “significantly higher affinity for the IgG-Fab than Pep-SpGβ1-Wild.1d”.
In experiment [2] (setting [9]), “Pep.1d K13T/T18A/E19I/V21A/K28I/F30L/Y33F/V39I: SpG-β1 mutant, SEQ ID NO: 85, GST-cleaved one domain type (TTYKLILNGKTLTGETTAIAADAATAEIVLKQFANDNGIDGEWTYDDATKTFTVTE; SpG mutant)” had a KA of 5.34e+06 M⁻¹, a koff of 0.0207 s⁻¹ and a kon of 111000 s/M. Further, the “KA Vs. Wild” value in experiment [2] (setting [10]) worked out at 37. Further, the “affinity / binding ability for the IgG-Fab compared with the wild-type (in words)” value in experiment [2] is given as “significantly higher affinity for the IgG-Fab than Pep-SpGβ1-Wild.1d”.
As for “Pep.1dC K10R/K13T/T18A/E19I/V21D/T25M/F30L/Y33F/N35F/D47A (TTYKLILNGRTLTGETTAIADDAAMAEKVLKQFAFDNGVDGEWTYDAATKTFTVTE)”, in experiment [2] (setting [9]), the KA stood at 1.56e+07 M⁻¹, the koff is 0.0062 s⁻¹ and the kon was determined as 97700 s/M. The “KA Vs. Wild” value in experiment [2] (setting [10]) turned out to be 88.
The like results for “Pep.1dC K13T/E19I/V21D/T25M/F30L/Y33F/N35F/D47A (TTYKLILNGKTLTGETTTIADDAAMAEKVLKQFAFDNGVDGEWTYDAATKTFTVTE)” were, in that order, 5.47e+06 M⁻¹, 0.0137 s⁻¹, 74700 s/M and 31.
The like results for “Pep.1dC K13T/T18A/E19I/V21A/K28I/F30L/Y33F/V39I: SpG-β1 mutant, SEQ ID NO: 85, GST-cleaved one domain type with Cys at the C-terminus (TTYKLILNGKTLTGETTAIAADAATAEIVLKQFANDNGIDGEWTYDDATKTFTVTE; C-terminal Cys; SpG mutant)” were, in that order, 9.11e+06 M⁻¹, 0.0097 s⁻¹, 88300 s/M and 51.
For “Pep.2dC K10R/K13T/T18A/E19I/V21D/T25M/F30L/Y33F/N35F/D47A: SpG-β1 mutant, SEQ ID NO: 87, GST-cleaved two domain type with Cys at the C-terminus”, in experiment [2] (setting [9]), the KA was found to be 8.56e+07 M⁻¹, the koff came out at 0.0014 s⁻¹ and the kon was 117000 s/M. The “KA Vs. Wild” value in experiment [2] (setting [10]) is 253. The “KA Vs. Wild” value in experiment [2] (Table 3, Example 4, fold of wild-type KA of the same construct type, listed as Pep-SpGβ1-K10R/K13T/T18A/E19I/V21D/T25M/F30L/Y33F/N35F/D47A.2dC) is no less than 200.
In experiment [2] (setting [9]), “Pep.2dC K13T/E19I/V21D/T25M/F30L/Y33F/N35F/D47A (TTYKLILNGKTLTGETTTIADDAAMAEKVLKQFAFDNGVDGEWTYDAATKTFTVTE)” displayed a KA of 9.68e+06 M⁻¹, an off-rate constant (koff) of 0.0058 s⁻¹ and a kon of 55700 s/M. Further, the “KA Vs. Wild” value in experiment [2] (setting [10]) stood at 29.
With “Pep.2dC K13T/T18A/E19I/V21A/K28I/F30L/Y33F/V39I (TTYKLILNGKTLTGETTAIAADAATAEIVLKQFANDNGIDGEWTYDDATKTFTVTE)”, in experiment [2] (setting [9]), the KA was 1.02e+07 M⁻¹, the koff was 0.0062 s⁻¹ and the kon worked out at 63900 s/M. The “KA Vs. Wild” value in experiment [2] (setting [10]) was 30.

As usually defined, the koff is a measure of how fast the partners let go of each other. A high value points to a short-lived complex.
